Our source for the binding result and binding signal values is paper PMC11260460, “A Plasmodium apicoplast-targeted unique exonuclease/FEN exhibits interspecies functional differences attributable to an insertion that alters DNA-binding”.

The target in data set [1] is T1, PfExo (Plasmodium falciparum 3D7, UniProt O96139 91-577).
T1 sequence: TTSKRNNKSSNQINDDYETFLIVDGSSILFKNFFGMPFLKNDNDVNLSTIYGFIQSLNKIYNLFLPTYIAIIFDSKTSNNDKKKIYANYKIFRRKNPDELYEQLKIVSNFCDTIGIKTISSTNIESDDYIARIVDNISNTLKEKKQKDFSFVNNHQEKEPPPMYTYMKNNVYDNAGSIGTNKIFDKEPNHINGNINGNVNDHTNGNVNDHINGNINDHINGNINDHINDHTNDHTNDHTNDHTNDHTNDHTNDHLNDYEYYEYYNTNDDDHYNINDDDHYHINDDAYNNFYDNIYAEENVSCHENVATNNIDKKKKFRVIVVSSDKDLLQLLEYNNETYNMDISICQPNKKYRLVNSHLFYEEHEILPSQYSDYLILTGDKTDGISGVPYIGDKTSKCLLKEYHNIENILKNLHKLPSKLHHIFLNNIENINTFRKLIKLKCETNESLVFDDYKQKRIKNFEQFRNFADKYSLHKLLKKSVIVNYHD
The experiment in a line: EMSA; 2 mM Mg2+; EMSA: 400 nM FAM-DNA, binding buffer as printed 200 mM HEPES pH 8.0, 500 mM NaCl, 10 mM DTT, 1 mg/ml BSA, 10% glycerol, 2 mM MgCl2, 30 min on ice, 6% native PAGE; BLI: 1x kinetic buffer in 1x PBS, Octet R8, 1:1 global fit. The conditions noted are these: protein: recombinant, tags: C-terminal 6xHis. On the technique in general: In EMSA bound probe runs differently from free probe, usually more slowly.

In data set [2] the target is T1, PfExo. The experiment in a line: BLI; KD value only in figure; EMSA: 400 nM FAM-DNA, binding buffer as printed 200 mM HEPES pH 8.0, 500 mM NaCl, 10 mM DTT, 1 mg/ml BSA, 10% glycerol, 2 mM MgCl2, 30 min on ice, 6% native PAGE; BLI: 1x kinetic buffer in 1x PBS, Octet R8, 1:1 global fit. Particulars: protein: recombinant; tags: C-terminal 6xHis; label: 5' biotin on strand 1; blunt.

The target in data set [3] is T2, PfExoΔins (Plasmodium falciparum 3D7, UniProt O96139 91-577, del241-393). The experiment in a line: BLI; EMSA: 400 nM FAM-DNA, binding buffer as printed 200 mM HEPES pH 8.0, 500 mM NaCl, 10 mM DTT, 1 mg/ml BSA, 10% glycerol, 2 mM MgCl2, 30 min on ice, 6% native PAGE; BLI: 1x kinetic buffer in 1x PBS, Octet R8, 1:1 global fit. Particulars: protein: recombinant; tags: C-terminal 6xHis; label: 5' biotin on strand 1; blunt.

For data set [4], the target named is T2, PfExoΔins. The experiment in a line: EMSA; 2 mM Mg2+; EMSA: 400 nM FAM-DNA, binding buffer as printed 200 mM HEPES pH 8.0, 500 mM NaCl, 10 mM DTT, 1 mg/ml BSA, 10% glycerol, 2 mM MgCl2, 30 min on ice, 6% native PAGE; BLI: 1x kinetic buffer in 1x PBS, Octet R8, 1:1 global fit. Particulars: protein: recombinant, tags: C-terminal 6xHis.

In the case of AAAACGTCAACTAGCTTCTCAAACACCTCATATATCTTAA (ssDNA) [ssDNA 5'-3' exo substrate], in data set [1] (label: 3' 6-FAM, single strand), the binding result is reported as “binds”.

With AAAACGTCAACTAGCTTCTCAAACAGCTCATATATCTTAA (ssDNA) [ssDNA 3'-5' exo substrate], in data set [1] (label: 5' 6-FAM, single strand), the binding result is on record as “binds”.

B1: BLI blunt-end dsDNA (34 bp) (dsDNA)
DNA 1: CAGTCCGAGCTAGGCAACATACGATAATCCATAC
DNA 2: GTATGGATTATCGTATGTTGCCTAGCTCGGACTG
Consider B1, for which the binding result in data set [2] was “binds”. The binding signal in data set [3] was around 5 fold higher KD than PfExo.

B2: 5'-flap DNA (dsDNA)
DNA 1: AAAACGTCAACTAGCTTCTCAAACAGCTCATATATCTTAA
DNA 2: B1 DNA 1
DNA 3: TTAAGATATATGAGCAGTATGGATTATCGTATGTTGCCTAGCTCGGACTG
In the case of B2, the binding result is given as “no binding” in data set [4] (label: FAM, 5' flap) and “binds” in data set [1] (label: FAM, 5' flap).

B3: Blunt-end dsDNA (14 bp) (dsDNA)
DNA 1: CTAGTGTACATGCA
DNA 2: TGCATGTACACTAG
Consider B3, for which the binding result in data set [4] (label: 3' 6-FAM on strand 1, blunt) is listed as “no binding”.
